According to patent US20260258128A1 (MUSTBIO, published 2026):

Legend:
Assay in all cases: cell-based or functional assay
[1] = molecular target: T1, CD3 on T cells of human peripheral blood mononuclear cells (human, UniProt P07766 23-207)
[2] = molecular target: PD-L1 on human cells (MDA-MB-231, MCF-7, 293T) (human, UniProt Q9NZQ7 19-290)
[3] = molecular target: T1, CD3 on T cells of human peripheral …; remark: listed apart in the source

Chain of PD-L1 on human cells (MDA-MB-231, MCF-7, 293T) (Q9NZQ7 19-290): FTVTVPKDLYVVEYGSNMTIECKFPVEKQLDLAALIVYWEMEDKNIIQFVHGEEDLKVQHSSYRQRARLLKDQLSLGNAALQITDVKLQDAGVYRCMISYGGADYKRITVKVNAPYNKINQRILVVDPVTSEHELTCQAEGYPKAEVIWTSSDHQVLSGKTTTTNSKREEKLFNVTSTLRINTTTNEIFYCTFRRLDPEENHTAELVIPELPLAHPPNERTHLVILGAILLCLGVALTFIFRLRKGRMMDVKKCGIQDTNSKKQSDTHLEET
T1 sequence (P07766 23-207): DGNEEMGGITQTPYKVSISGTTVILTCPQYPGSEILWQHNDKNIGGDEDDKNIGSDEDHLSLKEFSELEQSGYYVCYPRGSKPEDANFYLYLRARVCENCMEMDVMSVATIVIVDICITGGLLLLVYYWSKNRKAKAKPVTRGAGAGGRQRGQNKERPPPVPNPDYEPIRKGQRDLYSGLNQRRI

Binder	Death of cancer cells EC50 (MDA-MB-231 + human PBMC, flow cytometry) [1]	Death of cancer cells Emax (%) [1]	IFNγ release EC50 [1]	IFNγ release Maximum concentration [1]	Tumor lysis EC50, 293T (normal cells, low PD-L1 expression) + human PBMC [2]	Tumor lysis EC50, MCF7 (low PD-L1 expression) + human PBMC [2]	Tumor lysis EC50, MDA-MB-231 (high PD-L1 expression) + human PBMC [2]	fold reduction of the maximum cytokine release level compared to the CD3-binding monoclonal antibody [3]
Protein complex of CD3-binding antibody variable region 1-Fc x PD-L1 antibody (bispecific antibody) chain 1: EVQLVESGGGLVQPGGSLRLSCAASGFSFTGYTMNWVRQAPGKGLEWVALINPYKGVTTYADSVKGRFTISRDNSKNTAYLQMNSLRAEDTAVYYCARSGYYGDSDWYFDVWGQGTLVTVSSDIQMTQSPSSLSASVGDRVTITCRASQDIRNYLNWYQQKPGKAPKLLIYYTSRLESGVPSRFSGSGSGTDYTLTISSLQPEDFATYYCQQGNTLPWTFGQGTKVEIKRT chain 2: EVQLLESGGGLVQPGGSLRLSCAASGFTFSSYIMMWVRQAPGKGLEWVSSIYPSGGITFYADTVKGRFTISRDNSKNTLYLQMNSLRAEDTAVYYCARIKLGTVTTVDYWGQGTLVTVSSASTKGPSVFPLAPSSKSTSGGTAALGCLVKDYFPEPVTVSWNSGALTSGVHTFPAVLQSSGLYSLSSVVTVPSSSLGTQTYICNVNHKPSNTKVDKKV chain 3: QSALTQPASVSGSPGQSITISCTGTSSDVGGYNYVSWYQQHPGKAPKLMIYDVSNRPSGVSNRFSGSKSGNTASLTISGLQAEDEADYYCSSYTSSSTRVFGTGTKVTVLGQPKANPTVTLFPPSSEELQANKATLVCLISDFYPGAVTVAWKADGSPVKAGVETTKPSKQSNNKYAASSYLSLTPEQWKSHRSYSCQVTHEGSTVEKTVAPTECS	0.23 nM	80%	0.1 nM	6.1 ng/mL	–	–	–	–
Protein complex of CD3-binding antibody variable region 2-Fc x PD-L1 antibody (bispecific antibody) scFv-Fc: EVQLVESGGGLVQPGGSLRLSCAASGFSFTGYTMNWVRQAPGKGLEWVALINPYKGVTTYADSVKGRFTISRDNSKNTLYLQMNSLRAEDTAVYYCARSGYYGDSDWYFDVWGQGTLVTVSSGGGGSGGGGSGGGGSDIQMTQSPSSLSASVGDRVTITCRASQDIRNYLNWYQQKPGKAPKLLIYYTSSLESGVPSRFSGSGSGTDYTLTISSLQPEDFATYYCQQGNTLPWTFGQGTKVEIKRTEPKSSDKTHTCPPCPAPEAAGGPSVFLFPPKPKDTLMISRTPEVTCVVVDVSHEDPEVKFNWYVDGVEVHNAKTKPREEQYNSTYRVVSVLTVLHQDWLNGKEYKCKVSNKALPAPIEKTISKAKGQPREPQVYTGPPSRDELTKNQVSLSCAVKGFYPSDIAVEWESNGQPENNYKTTPPVLDSDGSFFLVSKLTVDKSRWQQGNVFSCSVMHEALHNHYTQKSLSLSPGK heavy: not shown light: QSALTQPASVSGSPGQSITISCTGTSSDVGGYNYVSWYQQHPGKAPKLMIYDVSNRPSGVSNRFSGSKSGNTASLTISGLQAEDEADYYCSSYTSSSTRVFGTGTKVTVLGQPKANPTVTLFPPSSEELQANKATLVCLISDFYPGAVTVAWKADGSPVKAGVETTKPSKQSNNKYAASSYLSLTPEQWKSHRSYSCQVTHEGSTVEKTVAPTECS	0.05 nM	–	2.5 nM	–	0.0313 nM	0.15 nM	0.0945 nM	–
Protein complex of CD3-binding antibody variable region 4-Fc x PD-L1 antibody (bispecific antibody) chain 1: EVQLVESGGGLVQPGGSLRLSCAASGFSFTGYTMNWVRQAPGKGLEWVALINPYKGVTTYADSVKGRFTISADNSKNTLYLQMNSLRAEDTAVYYCARSGYYGDSDWYFDVWGQGTLVTVSSDIQMTQSPSSLSASVGDRVTITCRASQDIRNYLNWYQQKPGKAPKLLIYYTSSLESGVPSRFSGSGSGTDYTLTISSLQPEDFATYYCQQGNTLPWTFGQGTKVEIKRT chain 2: EVQLLESGGGLVQPGGSLRLSCAASGFTFSSYIMMWVRQAPGKGLEWVSSIYPSGGITFYADTVKGRFTISRDNSKNTLYLQMNSLRAEDTAVYYCARIKLGTVTTVDYWGQGTLVTVSSASTKGPSVFPLAPSSKSTSGGTAALGCLVKDYFPEPVTVSWNSGALTSGVHTFPAVLQSSGLYSLSSVVTVPSSSLGTQTYICNVNHKPSNTKVDKKV chain 3: QSALTQPASVSGSPGQSITISCTGTSSDVGGYNYVSWYQQHPGKAPKLMIYDVSNRPSGVSNRFSGSKSGNTASLTISGLQAEDEADYYCSSYTSSSTRVFGTGTKVTVLGQPKANPTVTLFPPSSEELQANKATLVCLISDFYPGAVTVAWKADGSPVKAGVETTKPSKQSNNKYAASSYLSLTPEQWKSHRSYSCQVTHEGSTVEKTVAPTECS	0.18 nM	79%	31.2 nM	2.6 ng/mL	–	–	–	–
Protein complex of CD3-binding antibody variable region 6-Fc x PD-L1 antibody (bispecific antibody) chain 1: EVQLVESGGGLVQPGGSLRLSCAASGFSFTGYTMNWVRQAPGKGLEWVALINPYKGVTTYADSVKGRFTISDDNSKNTLYLQMNSLRAEDTAVYYCARSGYYGDSDWYFDVWGQGTLVTVSSDIQMTQSPSSLSASVGDRVTITCRASQDIRNYLNWYQQKPGKAPKLLIYYTSSLESGVPSRFSGSGSGTDYTLTISSLQPEDFATYYCQQGNTLPWTFGQGTKVEIKRT chain 2: EVQLLESGGGLVQPGGSLRLSCAASGFTFSSYIMMWVRQAPGKGLEWVSSIYPSGGITFYADTVKGRFTISRDNSKNTLYLQMNSLRAEDTAVYYCARIKLGTVTTVDYWGQGTLVTVSSASTKGPSVFPLAPSSKSTSGGTAALGCLVKDYFPEPVTVSWNSGALTSGVHTFPAVLQSSGLYSLSSVVTVPSSSLGTQTYICNVNHKPSNTKVDKKV chain 3: QSALTQPASVSGSPGQSITISCTGTSSDVGGYNYVSWYQQHPGKAPKLMIYDVSNRPSGVSNRFSGSKSGNTASLTISGLQAEDEADYYCSSYTSSSTRVFGTGTKVTVLGQPKANPTVTLFPPSSEELQANKATLVCLISDFYPGAVTVAWKADGSPVKAGVETTKPSKQSNNKYAASSYLSLTPEQWKSHRSYSCQVTHEGSTVEKTVAPTECS	3.5 nM	68%	16.4 nM	5.1 ng/mL	–	–	–	–
Protein complex of CD3-binding antibody variable region 5-Fc x PD-L1 antibody (bispecific antibody) chain 1: EVQLVESGGGLVQPGGSLRLSCAASGFSFTGYTMNWVRQAPGKCLEWVALINPYKGVTTYADSVKGRFTISADNSKNTLYLQMNSLRAEDTAVYYCARSGYYGDSDWYFDVWGQGTLVTVSSDIQMTQSPSSLSASVGDRVTITCRASQDIRNYLNWYQQKPGKAPKLLIYYTSSLESGVPSRFSGSGSGTDYTLTISSLQPEDFATYYCQQGNTLPWTFGCGTKVEIKRT chain 2: EVQLLESGGGLVQPGGSLRLSCAASGFTFSSYIMMWVRQAPGKGLEWVSSIYPSGGITFYADTVKGRFTISRDNSKNTLYLQMNSLRAEDTAVYYCARIKLGTVTTVDYWGQGTLVTVSSASTKGPSVFPLAPSSKSTSGGTAALGCLVKDYFPEPVTVSWNSGALTSGVHTFPAVLQSSGLYSLSSVVTVPSSSLGTQTYICNVNHKPSNTKVDKKV chain 3: QSALTQPASVSGSPGQSITISCTGTSSDVGGYNYVSWYQQHPGKAPKLMIYDVSNRPSGVSNRFSGSKSGNTASLTISGLQAEDEADYYCSSYTSSSTRVFGTGTKVTVLGQPKANPTVTLFPPSSEELQANKATLVCLISDFYPGAVTVAWKADGSPVKAGVETTKPSKQSNNKYAASSYLSLTPEQWKSHRSYSCQVTHEGSTVEKTVAPTECS	0.18 nM	66%	10 nM	4.4 ng/mL	–	–	–	–
Protein complex of CD3-binding antibody variable region 7-Fc x PD-L1 antibody (bispecific antibody) chain 1: EVQLVESGGGLVQPGGSLRLSCAASGFSFTGYTMNWVRQAPGKGLEWVALINPYKGVTTYADSVKGRFTISQDNSKNTLYLQMNSLRAEDTAVYYCARSGYYGDSDWYFDVWGQGTLVTVSSDIQMTQSPSSLSASVGDRVTITCRASQDIRNYLNWYQQKPGKAPKLLIYYTSSLESGVPSRFSGSGSGTDYTLTISSLQPEDFATYYCQQGNTLPWTFGQGTKVEIKRT chain 2: EVQLLESGGGLVQPGGSLRLSCAASGFTFSSYIMMWVRQAPGKGLEWVSSIYPSGGITFYADTVKGRFTISRDNSKNTLYLQMNSLRAEDTAVYYCARIKLGTVTTVDYWGQGTLVTVSSASTKGPSVFPLAPSSKSTSGGTAALGCLVKDYFPEPVTVSWNSGALTSGVHTFPAVLQSSGLYSLSSVVTVPSSSLGTQTYICNVNHKPSNTKVDKKV chain 3: QSALTQPASVSGSPGQSITISCTGTSSDVGGYNYVSWYQQHPGKAPKLMIYDVSNRPSGVSNRFSGSKSGNTASLTISGLQAEDEADYYCSSYTSSSTRVFGTGTKVTVLGQPKANPTVTLFPPSSEELQANKATLVCLISDFYPGAVTVAWKADGSPVKAGVETTKPSKQSNNKYAASSYLSLTPEQWKSHRSYSCQVTHEGSTVEKTVAPTECS	2.26 nM	68%	15.3 nM	9.3 ng/mL	–	–	–	–
Protein complex of CD3-binding antibody variable region 3-Fc x PD-L1 antibody (bispecific antibody) scFv-Fc: EVQLVESGGGLVQPGGSLRLSCAASGFSFTGYTMNWVRQAPGKCLEWVALINPYKGVTTYADSVKGRFTISRDNSKNTLYLQMNSLRAEDTAVYYCARSGYYGDSDWYFDVWGQGTLVTVSSGGGGSGGGGSGGGGSDIQMTQSPSSLSASVGDRVTITCRASQDIRNYLNWYQQKPGKAPKLLIYYTSSLESGVPSRFSGSGSGTDYTLTISSLQPEDFATYYCQQGNTLPWTFGCGTKVEIKRTEPKSSDKTHTCPPCPAPEAAGGPSVFLFPPKPKDTLMISRTPEVTCVVVDVSHEDPEVKFNWYVDGVEVHNAKTKPREEQYNSTYRVVSVLTVLHQDWLNGKEYKCKVSNKALPAPIEKTISKAKGQPREPQVYTGPPSRDELTKNQVSLSCAVKGFYPSDIAVEWESNGQPENNYKTTPPVLDSDGSFFLVSKLTVDKSRWQQGNVFSCSVMHEALHNHYTQKSLSLSPGK heavy: not shown light: QSALTQPASVSGSPGQSITISCTGTSSDVGGYNYVSWYQQHPGKAPKLMIYDVSNRPSGVSNRFSGSKSGNTASLTISGLQAEDEADYYCSSYTSSSTRVFGTGTKVTVLGQPKANPTVTLFPPSSEELQANKATLVCLISDFYPGAVTVAWKADGSPVKAGVETTKPSKQSNNKYAASSYLSLTPEQWKSHRSYSCQVTHEGSTVEKTVAPTECS	0.06 nM	–	0.1 nM	–	–	–	–	10.5 fold
